Molecular target: T1, WT Aβ (1–10)
T1 chain: DAEFRHDSGY
Test: native MS; IM-MS of oligomers of one Aβ fragment alone; Aβ (1–10) and Aβ (1–16) 600 µM, 10 mM NH4OAc; oligomers of many sizes seen, a printed size is the largest one
Conditions: remark: other sources report otherwise

B1: WT Aβ (1–10) (peptide)
peptide: DAEFRHDSGY
**Q.** Which stoichiometry N does the source give for B1 here?
**A.** 19
